In series [1] the test system is peptides of the growth hormone releasing factor (GRF) family.
Series [2] deals with Glucagon (UniProt P01275).
Series [3] addresses His^1-Ser^2-NPY (UniProt P01303).
In series [4] the target is [Gly]^2-glucagon (UniProt P01275).
Chain of [Gly]^2-glucagon (P01275 whole entry, looked up): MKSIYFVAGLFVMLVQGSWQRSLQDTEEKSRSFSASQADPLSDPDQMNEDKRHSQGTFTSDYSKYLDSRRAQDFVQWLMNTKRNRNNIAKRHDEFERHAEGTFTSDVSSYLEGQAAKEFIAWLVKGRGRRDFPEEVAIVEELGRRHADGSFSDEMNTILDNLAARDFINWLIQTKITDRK

Chain of Glucagon (P01275 53-81): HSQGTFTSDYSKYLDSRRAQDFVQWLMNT

On to recombinant human DP IV, wild type, for which, in series [1], the “hydrolysis (MALDI-TOF MS, capillary zone electrophoresis)” value was “All peptides were hydrolyzed by porcine DP IV, recombinant human DP IV or DP IV activity of the human serum”.

Consider DP IV, for which the results for the Km [M] of DP IV-catalyzed hydrolysis in series [2], in series [3] and in series [4] were 3.8e-06 M, 6.8e-05 M and 2.2e-05 M, respectively.

Source of the values: patent publication US20060234940.
